How the values were obtained:
[1] = target: human CD33 on cells (MOLM-13, Kasumi-1, OCI-AML-3, Kasumi-3) (human) (UniProt P20138); experiment: flow cytometry on MOLM-13 cells, 4 °C, serial dilutions of the antibody
[2] = target: human CD33 on cells (MOLM-13, Kasumi-1, OCI-AML-3, Kasumi-3) (human) (UniProt P20138); experiment: flow cytometry on Kasumi-1 cells, 4 °C, serial dilutions of the antibody
[3] = target: human CD33 on cells (MOLM-13, Kasumi-1, OCI-AML-3, Kasumi-3) (human) (UniProt P20138); experiment: flow cytometry on OCI-AML-3 cells, 4 °C, serial dilutions of the antibody
[4] = target: human CD33 on cells (MOLM-13, Kasumi-1, OCI-AML-3, Kasumi-3) (human) (UniProt P20138); experiment: flow cytometry on MOLM-13 cells, 4 °C, detection with PE goat F(ab')2 anti-human IgG-Fc

Sequence of human CD33 on cells (MOLM-13, Kasumi-1, OCI-AML-3, Kasumi-3) (human) (P20138 18-364): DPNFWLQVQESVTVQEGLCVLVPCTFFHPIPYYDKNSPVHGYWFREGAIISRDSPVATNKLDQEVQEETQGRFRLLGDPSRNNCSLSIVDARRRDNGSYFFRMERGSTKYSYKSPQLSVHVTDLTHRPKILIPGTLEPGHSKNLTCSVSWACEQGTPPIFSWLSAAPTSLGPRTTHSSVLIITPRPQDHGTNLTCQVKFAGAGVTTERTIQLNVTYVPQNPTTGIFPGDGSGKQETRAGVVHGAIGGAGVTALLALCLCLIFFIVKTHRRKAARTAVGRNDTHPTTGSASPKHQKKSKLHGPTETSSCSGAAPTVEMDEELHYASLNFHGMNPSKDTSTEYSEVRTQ

EC50 [1]: 310 pM
EC50 [2]: 340 pM
EC50 [3]: 900 pM
EC50 (read off the curve) [4]: 0.04 µg/mL
B1: Lintuzumab (antibody, part only; not given: constant regions, V domains shown, not shown: another chain or arm of the molecule)
VH: QVQLVQSGAEVKKPGSSVKVSCKASGYTFTDYNMHWVRQAPGQGLEWIGYIYPYNGGTGYNQKFKSKATITADESTNTAYMELSSLRSEDTAVYYCARGRPAMDYWGQGTLVTVSS
VL: DIQMTQSPSSLSASVGDRVTITCRASESVDNYGISFMNWFQQKPGKAPKLLIYAASNQGSGVPSRFSGSGSGTDFTLTISSLQPDDFATYYCQQSKEVPWTFGQGTKVEIK

Reference: patent US20230365684A1
